The results in this text go back to patent publication US20210221894A1 (DRAGONFLY THERAPEUTICS, published 2021).

One may read the EC50 (read off the curve) as the concentration needed to bring the measured effect to its halfway point. Broadly, the EC50 is the concentration giving half of the maximal effect. One may read the kon as the second-order rate constant of association. The Kd is the free concentration of one partner at which half of the binding sites on the other are occupied at equilibrium, for simple one-to-one binding. A lower Kd goes with tighter binding. Broadly, the koff is the first-order rate constant of dissociation. Low values mean a long-lived complex, high ones a short-lived complex.

The target in assay [1] is T1, recombinant human NKG2D-Fc fusion protein (human, UniProt P26718 73-216).
T1 construct: extracellular domain; also called NKG2D-Fc-biotin; not shown: human IgG1 Fc domain
T1 sequence (looked up): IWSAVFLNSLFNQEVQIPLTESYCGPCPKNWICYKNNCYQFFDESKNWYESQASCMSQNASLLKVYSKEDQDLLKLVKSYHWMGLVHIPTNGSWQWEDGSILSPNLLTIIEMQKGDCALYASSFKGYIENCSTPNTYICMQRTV
Description: ELISA, plate-bound recombinant human NKG2D-Fc, anti-human kappa-HRP/TMB. The source says:
(§1) The nucleic acid sequences of human, mouse or cynomolgus NKG2D ectodomains were fused with nucleic acid sequences encoding human IgG1 Fc domains and introduced into mammalian cells to be expressed. After purification, NKG2D-Fc fusion proteins were adsorbed to wells of microplates. After blocking the wells with bovine serum albumin to prevent non-specific binding, NKG2D-binding domains were titrated and added to the wells pre-adsorbed with NKG2D-Fc fusion proteins. Primary antibody binding was detected using a secondary antibody which was conjugated to horseradish peroxidase and specifically recognizes a human kappa light chain to avoid Fc cross-reactivity. 3,3′,5,5′-Tetramethylbenzidine (TMB), a substrate for horseradish peroxidase, was added to the wells to visualize the binding signal, whose absorbance was measured at 450 nm and corrected at […]. An NKG2D-binding domain clone, an isotype control or a positive control (comprising heavy chain and light chain variable domains selected from SEQ ID NOs:101-104, or anti-mouse NKG2D clones MI-6 and CX-5, eBioscience, San Diego, Calif.) was added to each well.
(In general: An ELISA detects its analyte on a solid surface through an enzyme-linked reagent.)

Assay [2] has as its target T2, recombinant mouse NKG2D-Fc fusion protein (mouse; human, UniProt O54709 90-232).
T2 construct: extracellular domain; also called Mouse NKG2D-Fc-biotin; not shown: human IgG1 Fc domain
T2 sequence (looked up): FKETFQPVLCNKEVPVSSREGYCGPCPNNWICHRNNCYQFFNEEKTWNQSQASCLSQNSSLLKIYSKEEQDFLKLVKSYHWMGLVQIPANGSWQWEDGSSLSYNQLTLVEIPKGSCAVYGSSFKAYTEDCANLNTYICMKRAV
The experiment in a line: ELISA, plate-bound recombinant mouse NKG2D-Fc, anti-human kappa-HRP/TMB.
From the text: as §1

Assay [3] deals with T3, recombinant cynomolgus NKG2D-Fc fusion protein (cynomolgus; human, UniProt P61252 73-216).
T3 construct: extracellular domain; not shown: human IgG1 Fc domain
T3 sequence (looked up): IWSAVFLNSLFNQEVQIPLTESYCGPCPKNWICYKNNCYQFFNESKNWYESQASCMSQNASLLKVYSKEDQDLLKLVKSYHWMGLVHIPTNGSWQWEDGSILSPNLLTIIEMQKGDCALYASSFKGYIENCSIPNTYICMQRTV
The experiment in a line: ELISA, plate-bound recombinant cynomolgus NKG2D-Fc, anti-human kappa-HRP/TMB.
From the text: as §1

The target in assay [4] is T1, recombinant human NKG2D-Fc fusion …. Description: competition ELISA: plate-bound human NKG2D-Fc, saturating ULBP-6-His-biotin as blocked ligand, streptavidin-HRP. The protocol:
Recombinant human NKG2D-Fc proteins were adsorbed to wells of a microplate, and the wells were blocked with bovine serum albumin to reduce non-specific binding. A saturating concentration of ULBP-6-His-biotin was added to the wells, followed by addition of the NKG2D-binding domain clones. After a 2-hour incubation, wells were washed and ULBP-6-His-biotin that remained bound to the NKG2D-Fc coated wells was detected by streptavidin-conjugated to horseradish peroxidase and TMB substrate. Absorbance was measured at 450 nm and corrected at […]. After subtracting background, specific binding of NKG2D-binding domains to the NKG2D-Fc proteins was calculated from the percentage of ULBP-6-His-biotin that was blocked from binding to the NKG2D-Fc proteins in wells.

Assay [5] addresses T2, recombinant mouse NKG2D-Fc fusion …. The experiment in a line: competition ELISA: plate-bound mouse Rae-1 delta-Fc, mouse NKG2D-Fc-biotin in solution; blocked ligand Rae-1 delta. The protocol: Recombinant mouse Rae-1 delta-Fc (R&D Systems, Minneapolis, Minn.) was adsorbed to wells of a microplate, and the wells were blocked with bovine serum albumin to reduce non-specific binding. Mouse NKG2D-Fc-biotin was added to the wells followed by NKG2D-binding domains. After incubation and washing, NKG2D-Fc-biotin that remained bound to Rae-1delta-Fc coated wells was detected using streptavidin-HRP and TMB substrate. Absorbance was measured at 450 nm and corrected at […]. After subtracting background, specific binding of NKG2D-binding domains to the NKG2D-Fc proteins was calculated from the percentage of NKG2D-Fc-biotin that was blocked from binding to the Rae-1delta-Fc coated wells.

Assay [6] addresses T4, recombinant human DLL3 (ELISA coat) (human, UniProt Q9NYJ7 27-492).
T4 sequence: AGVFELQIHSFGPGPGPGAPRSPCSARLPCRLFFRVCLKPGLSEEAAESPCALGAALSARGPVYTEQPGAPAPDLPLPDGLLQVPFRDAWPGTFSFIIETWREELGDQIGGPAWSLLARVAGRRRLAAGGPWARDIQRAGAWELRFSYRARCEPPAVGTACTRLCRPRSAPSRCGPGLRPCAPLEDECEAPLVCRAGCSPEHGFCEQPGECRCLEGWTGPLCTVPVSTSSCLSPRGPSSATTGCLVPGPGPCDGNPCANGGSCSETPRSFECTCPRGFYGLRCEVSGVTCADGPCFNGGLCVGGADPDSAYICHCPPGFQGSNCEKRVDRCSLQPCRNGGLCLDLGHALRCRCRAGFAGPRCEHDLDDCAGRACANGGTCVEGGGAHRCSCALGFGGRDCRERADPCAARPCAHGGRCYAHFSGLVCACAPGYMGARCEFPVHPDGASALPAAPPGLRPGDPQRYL
Description: ELISA, plate coated with recombinant human DLL3 0.5 µg/ml, anti-mouse IgG-HRP. The method, then:
(§2) To investigate the binding of anti-DLL3 antibodies to human DLL3, wells of high binding flat-bottom plates were coated with recombinant human DLL3 diluted to 0.5 μg/ml. To assess cross-reactivity of the antibodies to DLL1/DLL4, which are closely related family members to DLL3, plates were coated with recombinant human DLL1 diluted to 1 μg/ml, or human DLL4 diluted to 0.5 μg/ml. […] Binding was detected using anti-mouse IgG-HRP and 3,3′,5,5′-Tetramethylbenzidine (TMB) substrate. Signals were normalized to the corresponding positive control antibody.
Table 38 lists the calculated EC₅₀ based on the binding data from FIG. 24.

Assay [7] addresses T5, extracellular domain (ECD) of human DLL3 (AdipoGen Life Sciences) (human, UniProt Q9NYJ7 27-492).
T5 construct: Bought and further purified by size exclusion chromatography; also called hDLL3 ECD; DLL3 ECD
T5 sequence: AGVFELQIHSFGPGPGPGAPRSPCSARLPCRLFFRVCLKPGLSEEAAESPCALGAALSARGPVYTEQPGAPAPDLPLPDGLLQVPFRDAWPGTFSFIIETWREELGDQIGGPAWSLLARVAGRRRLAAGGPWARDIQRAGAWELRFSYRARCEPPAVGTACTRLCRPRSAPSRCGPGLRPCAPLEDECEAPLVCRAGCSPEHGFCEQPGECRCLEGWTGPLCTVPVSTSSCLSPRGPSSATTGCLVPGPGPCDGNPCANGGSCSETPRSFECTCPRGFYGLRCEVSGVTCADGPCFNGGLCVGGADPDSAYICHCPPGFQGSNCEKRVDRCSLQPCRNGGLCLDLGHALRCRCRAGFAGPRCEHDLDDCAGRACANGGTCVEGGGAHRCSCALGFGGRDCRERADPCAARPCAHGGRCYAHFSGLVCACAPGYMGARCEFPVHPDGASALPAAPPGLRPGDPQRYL
The experiment in a line: SPR (Biacore 8K), 37 C, antibody captured on anti-mouse Fc, DLL3 ECD injected, 1:1 fit. The source says: (§3) The binding kinetics of different anti-DLL3 antibodies to recombinant proteins of different domains of human DLL3 were studied by surface plasmon resonance (SPR) using a Biacore™ 8K instrument. These anti-DLL3 antibodies were produced from mouse hybridomas, and each included a heavy chain variable region and light chain variable region described herein. Briefly, antibodies recognizing human IgG Fc and antibodies recognizing mouse IgG Fc were immobilized on different channels of a Biacore™ 8K chip to allow simultaneous analysis of human and murine anti-DLL3 antibodies. Murine anti-DLL3 antibodies were captured on the anti-mouse Fc channel of the Biacore chip. The human anti-DLL3 antibody from Stemcentrx (San Francisco, Calif.) was used as a control and was captured onto anti-human Fc channel of the Biacore™ chip. Different concentrations of DLL3 ECD, DLL3 N-terminal domain, EGF2-6, EGF3-6, EGF4-6, or EGF5-6 domains of DLL3 were injected. Experiments were performed at 37° C. Biacore™ 8K evaluation software was used for all data analysis. To obtain kinetic rate constants double-referenced data were fit to a 1:1 interaction model using Biacore™ 8K Evaluation software (GE Healthcare, Marlborough, Mass.). The equilibrium binding constant KD was determined by the ratio of binding rate constants kd/kₐ.
Table 36 lists the calculated binding kinetics (KD). […] Stemcentrx anti-DLL3 antibody was used as a control.

Assay [8] deals with T5, extracellular domain (ECD) of human …. Description: SPR (Biacore 8K), 37 C, antibody captured on anti-mouse Fc, DLL3 ECD injected, 1:1 fit; approximate.
From the text: as §3
(§4) Table 36 lists the calculated binding kinetics (KD). […]

Another assay deals with T6, recombinant human DLL1 (human, UniProt O00548 18-540, limits assumed).
T6 sequence (looked up): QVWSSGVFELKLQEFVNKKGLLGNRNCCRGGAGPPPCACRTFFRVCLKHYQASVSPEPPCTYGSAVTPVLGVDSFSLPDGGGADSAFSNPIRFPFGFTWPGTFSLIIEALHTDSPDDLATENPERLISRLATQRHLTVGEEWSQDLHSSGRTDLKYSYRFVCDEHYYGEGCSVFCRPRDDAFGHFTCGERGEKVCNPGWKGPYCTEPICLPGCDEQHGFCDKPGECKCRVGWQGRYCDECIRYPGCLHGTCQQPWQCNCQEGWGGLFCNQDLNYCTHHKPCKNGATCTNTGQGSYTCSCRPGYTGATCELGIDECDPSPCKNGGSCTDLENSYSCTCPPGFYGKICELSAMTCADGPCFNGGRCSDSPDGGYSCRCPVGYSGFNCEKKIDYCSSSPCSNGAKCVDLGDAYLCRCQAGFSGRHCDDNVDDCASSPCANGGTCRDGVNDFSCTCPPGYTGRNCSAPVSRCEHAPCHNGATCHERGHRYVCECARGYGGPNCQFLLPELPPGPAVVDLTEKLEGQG
Description: ELISA, plate-bound recombinant human DLL1 (1 µg/mL), anti-mouse IgG-HRP/TMB, % of positive control max. The protocol:
as §2

A further assay deals with recombinant human DLL4 (human, UniProt Q9NR61 27-524, limits assumed). The experiment in a line: ELISA, plate-bound recombinant human DLL4 (0.5 µg/mL), anti-mouse IgG-HRP/TMB, % of positive control max. The method, then:
as §2

The target in assay [9] is T5, extracellular domain (ECD) of human …. The experiment in a line: SPR (Biacore 8K), 37 C, antibody captured on anti-mouse Fc, DLL3 ECD injected, 1:1 fit; off rate beyond instrument sensitivity.
From the text: as §3, §4

Chain of recombinant human DLL4 (Q9NR61 27-524 limits assumed): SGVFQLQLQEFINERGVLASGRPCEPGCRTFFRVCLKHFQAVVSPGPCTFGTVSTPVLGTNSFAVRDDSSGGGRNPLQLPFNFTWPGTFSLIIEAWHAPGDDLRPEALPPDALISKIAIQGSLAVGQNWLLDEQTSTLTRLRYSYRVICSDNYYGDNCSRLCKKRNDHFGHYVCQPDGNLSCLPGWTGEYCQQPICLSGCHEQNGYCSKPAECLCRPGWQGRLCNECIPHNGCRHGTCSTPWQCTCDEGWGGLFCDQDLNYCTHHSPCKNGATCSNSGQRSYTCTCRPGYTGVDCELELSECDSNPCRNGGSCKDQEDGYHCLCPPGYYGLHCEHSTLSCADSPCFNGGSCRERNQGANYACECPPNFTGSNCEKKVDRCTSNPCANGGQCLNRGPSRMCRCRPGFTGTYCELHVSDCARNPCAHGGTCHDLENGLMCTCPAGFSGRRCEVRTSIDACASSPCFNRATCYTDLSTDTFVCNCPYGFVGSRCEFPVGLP

B1: ADI-27740 (antibody, V domains shown)
VH: QVQLQQWGAGLLKPSETLSLTCAVYGGSFSGYYWSWIRQPPGKGLEWIGEIDHSGSTNYNPSLKSRVTISVDTSKNQFSLKLSSVTAADTAVYYCARARGPWSFDPWGQGTLVTVSS
VL: DIQMTQSPSTLSASVGDRVTITCRASQSIGSWLAWYQQKPGKAPKLLIYKASSLESGVPSRFSGSGSGTEFTLTISSLQPDDFATYYCQQYHSFYTFGGGTKVEIK
notes: also called A40
B1: the half-maximal effective concentration (EC50 (read off the curve)) in assay [1] was ~0.4 nM; in [2], ~0.2 nM; in assay [3], ~0.3 nM. The figures for the “IC50 (read off the curve)” value in [4] and in [5] were ~6 nM and ~20 nM, respectively.

B2: ADI-27743 (antibody, V domains shown)
VH: QVQLQQWGAGLLKPSETLSLTCAVYGGSFSGYYWSWIRQPPGKGLEWIGEIDHSGSTNYNPSLKSRVTISVDTSKNQFSLKLSSVTAADTAVYYCARARGPWSFDPWGQGTLVTVSS
VL: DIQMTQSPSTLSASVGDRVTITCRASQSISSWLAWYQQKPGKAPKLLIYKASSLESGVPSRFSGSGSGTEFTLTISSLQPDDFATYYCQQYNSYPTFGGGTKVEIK
Turning to B2, the entries for the “EC50 (read off the curve)” value in assay [1], in [2] and in assay [3] were ~0.3 nM, ~0.2 nM and ~0.3 nM, respectively. Also, the “IC50 (read off the curve)” value is ~2 nM in [4] and ~20 nM in assay [5].

B3: anti-DLL3 antibody clone 2F7 (antibody, V domains shown)
VH: QVQLQQSGAELMKPGASVKLSCKATGYTFTGYWIDWIKQRPGHGLEWVGEILPGSDNINYNEKFRGKATFTADTSSNTAYIQLSSLTTEDSAIYFCARCGTGPWFTYWGQGTLVTVSA
VL: NIMMTQSPSSLAVSAGEKVTMSCKSSQSVLYSSNQKNYLAWYQQKPGQSPRLLIYWASTRASGVPDRFTGSGSGTDFTLTITNIQPEDLAVYYCHQFLSSTWTFGGGTKLEIK
notes: Murine antibody produced from a mouse hybridoma
Consider B3, for which the concentration for a half-maximal effect (EC50) in assay [6] is 0.3 nM. This molecule also displayed a kon in assay [7] of 72100 M⁻¹ s⁻¹. In addition, the Kd in assay [8] is < 0.011 nM. The binding result with recombinant human DLL1 and in the assay with recombinant human DLL4 was “no binding” in each case. For the same molecule, in assay [9], the koff was ~1.15e-06 s⁻¹.

B4: anti-DLL3 antibody clone 2H6 (antibody, V domains shown)
VH: QIQLVQSGPELKKPGETVKISCKASGYTFTTYGVNWVKQAPGKGLKWMGWINTYSGVPTYADDFKGRFAFSLETIATTAYLQINNLKNEDTATYFCARFGNYGFDYWGQGTTLTVSS
VL: DIVMTQSPSSLSVSAGEKVTMSCKSSQSLVNSGNQKNYLAWYQQKPGQPPKLLISGASTRESGVPDRFTGSGSGTDFTLTISSVQAEDLAVYYCQNDHNYPYTFGGGTKLEIK
notes: Murine antibody from a mouse hybridoma
Turning to B4, the concentration giving a half-maximal response (EC50) in [6] stood at 0.06 nM. Further, the binding result in the assay with recombinant human DLL1 and in the assay with recombinant human DLL4 was “no binding” throughout.
